The target in test [1] is Soluble cation-independent mannose-6-phosphate receptor (sCI-M6PR). In words: plate-based sCI-M6PR binding ELISA (sCI-M6PR coated, HRP anti-Naglu polyclonal #2957 detection); KD extrapolated from binding curves.
Test [2] concerns the target T1, rhNaglu (Homo sapiens, UniProt P54802).
T1 construct: The N-terminal 23 amino acids are cleaved as the precursor protein enters the endoplasmic reticulum, resulting in a mature form; made in house; host or cells: human fibrosarcoma HT1080 cell clone over-expressing rhNaglu
T1 sequence (P54802 24-743): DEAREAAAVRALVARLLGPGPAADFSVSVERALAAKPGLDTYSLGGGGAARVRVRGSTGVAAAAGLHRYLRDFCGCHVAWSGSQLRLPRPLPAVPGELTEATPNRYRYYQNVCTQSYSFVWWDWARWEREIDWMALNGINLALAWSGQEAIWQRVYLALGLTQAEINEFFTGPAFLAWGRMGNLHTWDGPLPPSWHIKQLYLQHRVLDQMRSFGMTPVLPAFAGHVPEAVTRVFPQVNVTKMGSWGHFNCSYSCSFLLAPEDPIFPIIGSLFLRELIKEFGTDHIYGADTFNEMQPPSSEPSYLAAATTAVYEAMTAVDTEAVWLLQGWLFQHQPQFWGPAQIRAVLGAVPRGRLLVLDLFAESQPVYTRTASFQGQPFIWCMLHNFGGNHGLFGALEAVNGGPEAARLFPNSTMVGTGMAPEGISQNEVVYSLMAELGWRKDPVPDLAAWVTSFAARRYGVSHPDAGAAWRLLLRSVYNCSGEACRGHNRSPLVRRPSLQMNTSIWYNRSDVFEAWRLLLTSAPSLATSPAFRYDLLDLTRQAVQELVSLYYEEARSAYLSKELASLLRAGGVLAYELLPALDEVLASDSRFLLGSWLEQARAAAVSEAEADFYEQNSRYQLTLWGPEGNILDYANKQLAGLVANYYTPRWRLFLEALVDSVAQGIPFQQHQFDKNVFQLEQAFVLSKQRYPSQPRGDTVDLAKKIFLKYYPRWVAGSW
In words: Naglu activity assay with various inhibitors (4MU-GlcNAc fluorescent substrate). The settings on record: added at 0.0625, 0.25, 1, 4 and 8 mM; 37° C., 1 hour, pH 4.5. In kind it is biochemical. The method, then: A 10 mM stock of Naglu activity substrate solution was prepared by dissolving 5 mg of substrate, i.e., 4-methylumbelliferyl-N-acetyl-α-D-glucosaminide, in 250 μl of 100% DMSO. Naglu activity assay reaction buffer (0.1 M sodium acetate, 0.5 mg/ml BSA, pH 4.5) was then added to bring the volume up to 1318 μl. This 10 mM substrate stock solution was then diluted 10 fold with reaction buffer to make the final 1 mM substrate solution.
Samples and controls were pre-diluted in reaction buffer. 10 μl of each pre-diluted sample/control were applied in duplicate wells on a black clear bottom 96 well plate. 75 μl of 1 mM substrate solution containing various concentrations of inhibitors were added to each well. The plates were sealed with plate sealer and wrapped with aluminum foil. The plates were then placed in a Boekel Jitterbug Microplate Incubator Shaker (Cole-Parmer, Vernon Hills, Ill.) and shaken (setting at #1) at 37° C. for 1 hour. 200 μl of Stop Buffer (0.2 M Glycine, pH 10.7) were then added to all of the wells and fluorescence emission (excitation/emission at 360 nm/460 nm, respectively) was measured using a SpectraMax® Plus M2 plate reader from Molecular Devices (Sunnyvale, Calif.).
To further confirm that rhNaglu could hydrolyze UDP-GlcNAc, we investigated whether UDP-GlcNAc inhibited the hydrolysis by rhNaglu of the fluorescent substrate 4MU-GlcNAc (4-methylumbelliferyl-N-acetyl-α-D-glucosaminide) in a Naglu activity assay. Briefly, UDP-GlcNAc, as well as GlcNAc, UDP-GalNAc and Glucosamine, were added to the Naglu activity assay at 0.0625, 0.25, 1, 4 and 8 mM concentrations. The fluorescence emitted from these samples was compared to control samples only including rhNaglu and 4MU-GlcNAc.

Test [3] deals with T2, CI-M6PR (Homo sapiens, UniProt P11717).
T2 construct: the secreted sCI-M6PR was purified from the tissue culture medium; made in house
In words: Plate based sCI-M6PR binding assay (ELISA). The method, then: (1) Generation of sCI-M6PR (soluble CI-M6PR)—Full length M6PR was expressed in genetically modified tissue culture cells, and the secreted sCI-M6PR was purified from the tissue culture medium using an aminophenyl-M6P conjugated resin (Beljaars et al., 1999). N-terminal sequencing and LC/MS/MS analysis of the obtained protein confirmed the amino acid sequence of the sCI-M6PR, and MALDI analysis confirmed that its molecular mass was 279,492 Da.
100 μl of sCI-M6PR(2.5 μg/ml) in DPBS were coated on MaxiSorp® Nunc-Immuno flat-bottom 96-well plates (Thermo Fisher Scientific, Inc., Sunnyvale, Calif.). After incubation for 1 hour at 37° C., the plates was washed with ELISA wash buffer (0.1% Tween-20 in DPBS). sCI-M6PR coated wells were blocked with 300 μl ELISA blocking buffer (DPBS, 2% BSA, 0.05% Tween 20) at 37° C. for 1 hour. Appropriate dilutions of sGNPT-modified Naglu-Kif (and rhNaglu as control) were made in blocking buffer and added to the wells. After 1 hour incubation at 37° C., the plates were washed with ELISA wash buffer, and 100 μl of HRP-conjugated rabbit anti-Naglu polyclonal antibody #2957 diluted in blocking buffer were added. After 1 hour incubation at 37° C., the plates was washed again with ELISA wash buffer. The ELISA was developed using TMB peroxidase substrate solution (KPL, Inc., Gaithersburg, Mass.) by following the manufacturer's protocol.
sGNPT transfers the phospho-GlcNAc group from UDP-GlcNAc to mannose sugar, and the resulting mannose-6-phosphate-GlcNAc is called the Capped-M6P. During the normal intracellular glycosylation process, the decapping enzyme (N-acetylglucosamine 1-phosphodiester α-N-acetyglucosaminidase) removes the GlcNAc from the Capped-M6P, to generate M6P. But without decapping, the Capped-M6P can also bind to CI-M6PR. Capped-M6P binds to domain 5 of CI-M6PR rather than to domain 3 or 9, as M6P does (Bohnsack et al. 2009). The amount of Capped-M6P on Naglu-Kif can be indirectly evaluated using a CI-M6PR plate binding assay. In this binding assay the affinity with which Naglu-Kif bound to CI-M6PR increased in proportion to the amount of sGNPT used (35 μg, 70 μg and 140 (corresponding to about 4.2 μM) (green, red and empty circle in FIG. 8, respectively)) to modify Naglu-Kif and thus the extent of Capped-M6P found on Naglu-Kif (FIG. 8). […] These binding reactions were repeated in two different buffer systems, i.e., in a sodium acetate buffer (40 mM NaAc pH 6.5, 10 mM MnCl2, 10 mM MgCl2) and in a Tris buffer (50 mM Tris pH 7.4, 10 mM MnCl2, 10 mM MgCl2), which gave similar results. Contrary to Naglu-Kif, rhNaglu was not phosphorylated by sGNPT under the same conditions due to the lack of high-mannose glycans.

Regarding “Naglu-Kif (high-mannose-containing recombinant human Naglu) modified in vitro with 70 µg sGNPT (from UniProt P54802 24-743) (enzyme)”, the Kd in test [1] was 5.92 nM.
As to “uridine diphosphate N-acetyl galactosamine [UDP-GalNAc]”, the “inhibition of rhNaglu activity toward 4MU-GlcNAc” value (shortened to “inhibition”) in test [2] is recorded as “not inhibited”.
Regarding `CC(=O)N[C@H]1C(O)O[C@H](CO)[C@@H](O)[C@@H]1O` (stereo partly drawn) [GlcNAc, N-acetylglucosamine], the “inhibition” value in test [2] is recorded as “Inhibition”.
“Naglu-Kif (high-mannose-containing recombinant human Naglu) modified in vitro with 35 µg sGNPT (from UniProt P54802 24-743) (enzyme)”: in test [1], the Kd was 15.3 nM.
In the case of “Naglu-Kif (high-mannose-containing recombinant human Naglu) modified in vitro with 140 µg sGNPT (from UniProt P54802 24-743) (enzyme)”, the Kd in test [1] was 1.48 nM.
Take `N[C@H]1C(O)O[C@H](CO)[C@@H](O)[C@@H]1O` (stereo partly drawn) [glucosamine]: in test [2], the “inhibition” value is on record as “not inhibited”.

B1: Naglu-Kif: high-mannose-containing recombinant human Naglu purified from HT1080 cells grown with 2 mg/l Kifunensine; tested after sGNPT modification (protein)
chain: T1 sequence (P54802 24-743)
As for B1, the Kd in test [3] (Naglu-Kif modified with 35 μg sGNPT) was 15.3 nM; in test [3] (Naglu-Kif modified with 70 μg sGNPT) it was 5.92 nM; in test [3] (Naglu-Kif modified with 140 sGNPT (about 4.2 μM)), 1.48 nM.

The values are drawn from patent US20170267986A1, “GENERATION OF MANNOSE-6-PHOSPHATE CONTAINING RECOMBINANT ALPHA-N-ACETYL GLUCOSAMINIDASE” (SHIRE HUMAN GENETIC THERAPIES, INC., priority 2014, published 2017).
